Assay results from the supplement of paper PMC10201428.
± gives the standard deviation of the averaged measurements.

Assays:
[1] = tested on: VchCAST RNA-guided transposition machinery (E. coli BL21(DE3) host, lacZ target); assay: relative integration efficiency (T-LR orientation) vs wild-type transposon end (log2 (normalized fold change)); transposon end mutated: right end (5 bp flank + 75 bp right end); higher = more efficient transposition
In short: (§1)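 Relative integration efficiency is a fold change of output over input barcode abundance, normalised to reference barcodes and log-transformed. Input plasmids and genomic integration junctions were PCR-amplified and Illumina-sequenced from E. coli BL21(DE3) co-transformed with a T7-driven effector plasmid and pUC57 donor pools of 1549 left-end or 1849 right-end transposon variants. Plating was done with 0.1 mM IPTG at 37°C for 18 h, with two biological output replicates and four reference barcodes.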

[2] = tested on: VchCAST RNA-guided transposition machinery (E. coli BL21(DE3) host, lacZ target); assay: relative integration efficiency (T-RL orientation) vs wild-type transposon end (log2 (normalized fold change)); transposon end mutated: right end (5 bp flank + 75 bp right end); higher = more efficient transposition
In short: as §1

| Sequence | relative integration efficiency (log2) [1] | relative integration efficiency (log2) [2] |
| --- | --- | --- |
| ACATTTGTTGATACAACCATATATTGATATCTCCAACCATAAAGTGATATTTATCAGTGGGTATTTAACTATAACGCTCTGATCATAGTCAGACCAACATTGCTACGACCCGTATTCGCACCGACAC | 2.59 ± 0.059 | -0.927 ± 0.29 |
| ACATTTGTTGATACAACCATATATTGATATCTCCAACCATAAGTTGATATTTTTCACAACCATAAAATGATAATTACTCTGATCATAGTCAGACCAACATTGCTACGACCCGTATTCGCACCGACAC | -0.448 ± 0.2 | -0.279 ± 0.084 |
| ACATTTGTTGATACAACCATATATTGATATCTCCAACCATAAGTTGATATTTTTCACAACCATAAAGTGATATTTACTCTGATCATAGTCAGACCAACATTGCTACGACCCGTATTCGCACCGACAC | -0.0291 ± 0.26 | -0.225 ± 0.017 |
| ACATTTGTTGATACAACCATATATTGATATCTCCAACCATAAGTTGATATTTTTCACAACCATAAGTTGATATTTTCTCTGATCATAGTCAGACCAACATTGCTACGACCCGTATTCGCACCGACAC | -0.31 ± 0.26 | -0.0557 ± 0.027 |
| ACATTTGTTGATACAACCATATATTGATATCTCCAACCATAAGTTGATATTTTTCACAACCATATATTGATATCTCCTCTGATCATAGTCAGACCAACATTGCTACGACCCGTATTCGCACCGACAC | 0.0875 ± 0.82 | -0.17 ± 0.037 |
| ACATTTGTTGATACAACCATATATTGATATCTCCAACCATAAGTTGATATTTTTCACACCCATAAATTGATAATTACTCTGATCATAGTCAGACCAACATTGCTACGACCCGTATTCGCACCGACAC | 0.109 ± 0.44 | -0.491 ± 0.17 |
| ACATTTGTTGATACAACCATATATTGATATCTCCAACCATAAGTTGATATTTTTCACACCCATAAATTGATATTGCCTCTGATCATAGTCAGACCAACATTGCTACGACCCGTATTCGCACCGACAC | -0.216 ± 0.018 | -0.335 ± 0.081 |
| ACATTTGTTGATACAACCATATATTGATATCTCCAACCATAAGTTGATATTTTTCAGTGGGTATTTAACTATAACGCTCTGATCATAGTCAGACCAACATTGCTACGACCCGTATTCGCACCGACAC | 2.468 ± 0.015 | -0.859 ± 0.26 |
| ACATTTGTTGATACAACCATATATTGATATCTCCAACCATATATTGATATCTCTCACAACCATAAAATGATAATTACTCTGATCATAGTCAGACCAACATTGCTACGACCCGTATTCGCACCGACAC | -0.08 ± 0.5 | -0.562 ± 0.043 |
| ACATTTGTTGATACAACCATATATTGATATCTCCAACCATATATTGATATCTCTCACAACCATAAAGTGATATTTACTCTGATCATAGTCAGACCAACATTGCTACGACCCGTATTCGCACCGACAC | 0.0811 ± 0.2 | -0.452 ± 0.1 |
| ACATTTGTTGATACAACCATATATTGATATCTCCAACCATATATTGATATCTCTCACAACCATAAGTTGATATTTTCTCTGATCATAGTCAGACCAACATTGCTACGACCCGTATTCGCACCGACAC | -0.0341 ± 0.43 | -0.571 ± 0.19 |
| ACATTTGTTGATACAACCATATATTGATATCTCCAACCATATATTGATATCTCTCACAACCATATATTGATATCTCCTCTGATCATAGTCAGACCAACATTGCTACGACCCGTATTCGCACCGACAC | -0.402 ± 0.094 | -0.859 ± 0.14 |
| ACATTTGTTGATACAACCATATATTGATATCTCCAACCATATATTGATATCTCTCACACCCATAAATTGATAATTACTCTGATCATAGTCAGACCAACATTGCTACGACCCGTATTCGCACCGACAC | 0.23 ± 0.045 | -0.357 ± 0.067 |
| ACATTTGTTGATACAACCATATATTGATATCTCCAACCATATATTGATATCTCTCACACCCATAAATTGATATTGCCTCTGATCATAGTCAGACCAACATTGCTACGACCCGTATTCGCACCGACAC | -0.162 ± 0.005 | -0.682 ± 0.15 |
| ACATTTGTTGATACAACCATATATTGATATCTCCAACCATATATTGATATCTCTCAGTGGGTATTTAACTATAACGCTCTGATCATAGTCAGACCAACATTGCTACGACCCGTATTCGCACCGACAC | 2.41 ± 0.14 | -1.48 ± 0.31 |
| ACATTTGTTGATACAACCATATATTGATATCTCCACCCATAAATTGATAATTATCACAACCATAAAATGATAATTACTCTGATCATAGTCAGACCAACATTGCTACGACCCGTATTCGCACCGACAC | -0.483 ± 0.35 | -0.253 ± 0.0069 |
| ACATTTGTTGATACAACCATATATTGATATCTCCACCCATAAATTGATAATTATCACAACCATAAAGTGATATTTACTCTGATCATAGTCAGACCAACATTGCTACGACCCGTATTCGCACCGACAC | -0.378 ± 0.45 | -0.345 ± 0.0079 |
| ACATTTGTTGATACAACCATATATTGATATCTCCACCCATAAATTGATAATTATCACAACCATAAGTTGATATTTTCTCTGATCATAGTCAGACCAACATTGCTACGACCCGTATTCGCACCGACAC | 0.056 ± 0.33 | -0.316 ± 0.1 |

| Sequence | relative integration efficiency (log2) [1] | relative integration efficiency (log2) [2] |
| --- | --- | --- |
| ACATTTGTTGATACAACCATATATTGATATCTCCACCCATAAATTGATAATTATCACAACCATATATTGATATCTCCTCTGATCATAGTCAGACCAACATTGCTACGACCCGTATTCGCACCGACAC | -0.00761 ± 0.26 | -0.13 ± 0.1 |
| ACATTTGTTGATACAACCATATATTGATATCTCCACCCATAAATTGATAATTATCACACCCATAAATTGATAATTACTCTGATCATAGTCAGACCAACATTGCTACGACCCGTATTCGCACCGACAC | -0.06 ± 0.4 | -0.315 ± 0.0034 |
| ACATTTGTTGATACAACCATATATTGATATCTCCACCCATAAATTGATAATTATCACACCCATAAATTGATATTGCCTCTGATCATAGTCAGACCAACATTGCTACGACCCGTATTCGCACCGACAC | -0.187 ± 0.16 | -0.348 ± 0.03 |
| ACATTTGTTGATACAACCATATATTGATATCTCCACCCATAAATTGATAATTATCAGTGGGTATTTAACTATAACGCTCTGATCATAGTCAGACCAACATTGCTACGACCCGTATTCGCACCGACAC | 2.29 ± 0.021 | -1.01 ± 0.15 |
| ACATTTGTTGATACAACCATATATTGATATCTCCACCCATAAATTGATATTGCTCACAACCATAAAATGATAATTACTCTGATCATAGTCAGACCAACATTGCTACGACCCGTATTCGCACCGACAC | -0.381 ± 0.46 | -0.537 ± 0.12 |
| ACATTTGTTGATACAACCATATATTGATATCTCCACCCATAAATTGATATTGCTCACAACCATAAAGTGATATTTACTCTGATCATAGTCAGACCAACATTGCTACGACCCGTATTCGCACCGACAC | -0.202 ± 0.54 | -0.6 ± 0.069 |
| ACATTTGTTGATACAACCATATATTGATATCTCCACCCATAAATTGATATTGCTCACAACCATAAGTTGATATTTTCTCTGATCATAGTCAGACCAACATTGCTACGACCCGTATTCGCACCGACAC | 0.281 ± 0.01 | -0.57247 ± 9.5e-05 |
| ACATTTGTTGATACAACCATATATTGATATCTCCACCCATAAATTGATATTGCTCACAACCATATATTGATATCTCCTCTGATCATAGTCAGACCAACATTGCTACGACCCGTATTCGCACCGACAC | 0.439 ± 0.28 | -0.713 ± 0.056 |
| ACATTTGTTGATACAACCATATATTGATATCTCCACCCATAAATTGATATTGCTCACACCCATAAATTGATAATTACTCTGATCATAGTCAGACCAACATTGCTACGACCCGTATTCGCACCGACAC | 0.429 ± 0.13 | -0.617 ± 0.12 |
| ACATTTGTTGATACAACCATATATTGATATCTCCACCCATAAATTGATATTGCTCACACCCATAAATTGATATTGCCTCTGATCATAGTCAGACCAACATTGCTACGACCCGTATTCGCACCGACAC | 0.466 ± 0.081 | -0.524 ± 0.027 |
| ACATTTGTTGATACAACCATATATTGATATCTCCACCCATAAATTGATATTGCTCAGTGGGTATTTAACTATAACGCTCTGATCATAGTCAGACCAACATTGCTACGACCCGTATTCGCACCGACAC | 2.32 ± 0.041 | -1.2 ± 0.17 |
| ACATTTGTTGATACAACCATATTATGATAATTACACCCATAAATTGATAATTATCACACCCATAAATTGATATTGCCTCTGATCATAGTCAGACCAACATTGCTACGACCCGTATTCGCACCGACAC | -0.476 ± 0.63 | -0.2975 ± 0.0027 |
| ACATTTGTTGATACAACCATATTATGATAATTACACCCATATTTTGATAATTATCACACCCATATTTTGATATTGCCTCTGATCATAGTCAGACCAACATTGCTACGACCCGTATTCGCACCGACAC | -0.471 ± 0.23 | -0.5763 ± 0.0022 |
| ACATTTGTTGATACAACCATATTTAGATAATTACACCCATAAATTGATAATTATCACACCCATAAATTGATATTGCCTCTGATCATAGTCAGACCAACATTGCTACGACCCGTATTCGCACCGACAC | -0.623 ± 0.22 | -0.585 ± 0.14 |
| ACATTTGTTGATACAACCATATTTAGATAATTACACCCATATTAAGATAATTATCACACCCATATTAAGATATTGCCTCTGATCATAGTCAGACCAACATTGCTACGACCCGTATTCGCACCGACAC | -1.1 ± 0.36 | -2.27 ± 0.31 |
| ACATTTGTTGATACAACCATATTTTGATAATTACACCCATATTATGATAATTATCACACCCATATTATGATATTGCCTCTGATCATAGTCAGACCAACATTGCTACGACCCGTATTCGCACCGACAC | -0.241 ± 0.0091 | -0.721 ± 0.17 |
| ACATTTGTTGATACAACCATCAAATGATAATTACACCCATACATTGATAATTATCACACCCAATTTAACTATAACGCTCTGATCATAGTCAGACCAACATTGCTACGACCCGTATTCGCACCGACAC | -0.0308 ± 0.27 | -2.9 ± 0.42 |
